According to patent publication US20170096478A1, “THERAPEUTIC AGENT FOR INFLAMMATORY DISEASE” (Josai University Corporation, priority 2012, published 2017):

Assays:
[1] = test system: lipopolysaccharide (LPS)-induced lethal sepsis; experiment: Test Example 8-2: histone concentration in serum and inflammatory tissue (lung); assay type: in vivo, BALB/c mice
Description: BALB/c mice (bodyweight of 20 g to 30 g when starting the experiments, n=10) were raised in a plastic cage under SPF and thermo-hydrostat (22±1° C., 55±5%) conditions under 12-hour light-dark cycle. Foods and water were supplied ad libitum. Then, by intraperitoneally administering LPS to the mice at a dose of 40 mg/kg, lipopolysaccharide (LPS)-induced lethal sepsis as an inflammatory disease was induced in the same manner as Test Example 7. SSV mAb dissolved in physiological saline was intraperitoneally administered totally 3 times, i.e., at 30 minutes before, 6 hours after and 12 hours after the intraperitoneal administration of LPS, in an amount of 100 μg/dose in terms of the amount of SSV mAb. The survival of the animals thereafter was tested. To the control group, IgG (SIGMA) dissolved in physiological saline was administered in place of SSV mAb in the same manner.
In Test Example 8, heart-derived blood or lung tissue was obtained from control group and SSV mAb-administered group under general anesthesia according to the method conducted by Hasegawa et al. (Surg Res. 2012 May 1; 174(1):136-41.). The concentration of histone H1, histone H3 and H4 of the obtained samples were measured by using a commercially available measurement kit using ELISA.

[2] = test system: CD3 positive T cells; experiment: Reactivity of the monoclonal antibody with T cells by flow cytometry (FACS); assay type: cell-based, C57BL/6 mouse; details: unstimulated T cells, 16G9 mAb compared with SSV mAb
Description: Using the following approach, spleen was removed from a C57BL/6 mouse (5 weeks old, female, CHARLES RIVER LABORATORIES JAPAN, INC.) to prepare whole splenic cells.
First, in a 5 ml culture dish (BD Bioscience FALCON 351007) into which 5 ml RPMI 1640 culture medium (Sigma-Aldrich, R-8758) was transferred, spleen was disentangled well with scissors for dissection and forceps to suspend the splenic cells, which were then transferred to a 15 ml centrifuge tube (BD Bioscience FALCON 352096). Then, the 5 ml dish was washed several times with phosphate-buffered saline (PBS, Invitrogen, 20012-027), and these were also added to the foregoing cell suspension and allowed to stand, and then the supernatant was collected in another 15 ml centrifuge tube. In addition, 5 ml RPMI 1640 culture medium was also added to the residual insoluble spleen tissue again and allowed to stand, and then only the supernatant was collected, which was combined with the above-mentioned cell suspension to perform centrifugation at 1,500 rpm for 5 min. To the collected cells, added was 2 ml lysis buffer (150 mM NH4Cl/15 mM NaHCO3/0.1 mM EDTA-Na2, pH 7.3) and hemolyzed by tapping, and then 10 ml PBS was added. After washed 3 times by centrifugation at 1,500 rpm for 5 min, whole splenic cells were obtained. […]
The reactivity of the above unstimulated with 16G9 mAb or SSV mAb was analyzed by flow cytometry (FACS). […]

[3] = test system: T cells from a Balb/c mouse; experiment: MLR tests with T cells with or without mitochondria ATP synthase knock-down by siRNA; assay type: cell-based

B1: SSV mAb: monoclonal antibody (IgG1) produced by Mouse-Mouse hybridoma SSV-C 93-3 (NITE BP-972), raised against peptide … (SEQ ID NO:1)-KLH conjugate (antibody, V domains shown)
VH: EIQLQQSGAELVKPGASVKISCKASGYSFTGYNMNWVKQSHGKSLEWIGNINPYYGSTSYNQKFKGKATLTVDKSSSTAYMQLNSLTSEDSAVYYCARSPYYSNYWRYFDYWGQGTTLTVSS
VL: QIVLSQSPAILSASPGEKVTMTCRASSSVSYMHWYQQKPGSSPKPWIYATSNLASGVPARFSGSGSGTSYSLTISRVEAEDAATYYCQQWSSNPWTFGGGTKLEIK
concentration of histone H3 in blood sample ([1]; FIG. 10A, vs control group): lower than the control group | concentration of histone H3 in inflammatory tissue (lung) ([1]; FIG. 10B, vs control group): lower than the control group | concentration of histone H1 in blood sample ([1]; serum, during the test): almost kept constant without increase | concentration of histone H3 in blood sample ([1]; stated under the histone H4 results, FIG. 11A, vs control group): tend to be lower than the control group | concentration of histone H3 in inflammatory tissue (lung) ([1]; stated under the histone H4 results, FIG. 11B, vs control group): tend to be lower than the control group | concentration of histone H1 in inflammatory tissue (lung) ([1]; vs control group): more significantly decreased than that from the control group | reactivity with CD3 positive T cells [2]: comparative reactivity | cell growth inhibition in MLR compared with Isotype IgG1 ([3]; ATP synthase knocked down): no significant difference | cell growth inhibition in MLR compared with Isotype IgG1 ([3]; ATP synthase not knocked down): significantly inhibited cell growth
